Values quoted from earlier work as cited in publication PMC4216181 (Journal of nuclear medicine : official publication, Society …, 2009).

Biological target: HER2 (Homo sapiens, UniProt P04626)
Conditions: read-out: dissociation constant [KD]; HER2, nonmodified 2-helix protein; cited from earlier work

In the case of “[homoC]NKEMRNRYWEAALDPNLNNQQK-RAKIRSIYDDP[homoC]-NH2 (disulfide) [MUT-DS]”, the Kd is listed as 5 nM.
